Starred links: 1 amine or outer side, 2 acyl side, 3 side chain; linkers in the order of their positions; H or OH if unused. Non-standard residues stand in square brackets, D forms with d. Groups on a side chain read outwards from the residue. Primed or numbered codes have the meaning given here. No end group written: not given here. *: point of attachment. C20 diacid = O=C(O)CCCCCCCCCCCCCCCCCCC(=O)*; γGlu = O=C(O)[C@H](CCC(=O)[*:2])N[*:1]; NMeY = CN[C@@H](Cc1ccc(O)cc1)C(=O)O; αMeF = C[C@](N)(Cc1ccccc1)C(=O)O; Lauroyl = CCCCCCCCCCCC(=O)*; dIva = CC[C@@](C)(N)C(=O)O; Iva = CC[C@](C)(N)C(=O)O; PEG3′ = not defined here; Aib = CC(C)(N)C(=O)O
T1: human GLP-1R (human), P43220
T1 chain: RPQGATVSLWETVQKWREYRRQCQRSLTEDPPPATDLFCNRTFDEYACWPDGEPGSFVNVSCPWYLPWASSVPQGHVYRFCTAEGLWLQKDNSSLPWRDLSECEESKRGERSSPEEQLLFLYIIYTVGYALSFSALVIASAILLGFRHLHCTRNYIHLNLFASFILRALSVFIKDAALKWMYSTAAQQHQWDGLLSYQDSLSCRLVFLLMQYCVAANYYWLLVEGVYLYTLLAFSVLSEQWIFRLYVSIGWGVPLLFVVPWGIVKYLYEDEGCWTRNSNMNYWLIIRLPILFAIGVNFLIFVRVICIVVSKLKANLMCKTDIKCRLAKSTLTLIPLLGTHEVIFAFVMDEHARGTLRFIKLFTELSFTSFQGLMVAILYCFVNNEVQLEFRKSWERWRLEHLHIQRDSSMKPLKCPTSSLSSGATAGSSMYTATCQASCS

T2: human GIPR (human), P48546
T2 chain: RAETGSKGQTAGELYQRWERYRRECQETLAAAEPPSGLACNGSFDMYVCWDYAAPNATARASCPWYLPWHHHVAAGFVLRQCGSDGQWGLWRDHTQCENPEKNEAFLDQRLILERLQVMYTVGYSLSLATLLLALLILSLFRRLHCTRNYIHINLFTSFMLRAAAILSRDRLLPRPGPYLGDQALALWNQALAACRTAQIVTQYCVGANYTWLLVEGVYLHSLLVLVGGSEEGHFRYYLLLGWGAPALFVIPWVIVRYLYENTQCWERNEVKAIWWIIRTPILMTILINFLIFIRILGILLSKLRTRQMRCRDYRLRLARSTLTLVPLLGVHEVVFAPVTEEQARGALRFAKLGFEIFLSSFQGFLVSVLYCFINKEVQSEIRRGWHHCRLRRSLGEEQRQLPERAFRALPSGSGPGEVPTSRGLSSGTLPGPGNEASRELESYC


Experiments:
[1] = target: T1, human GLP-1R (human), P43220
[2] = target: T2, human GIPR (human), P48546
[3] = target: T2, human GIPR (human), P48546; test: [125I]GIP displacement, hGIPR VLP

Binder | Agonist activity (EC50, M) [1] [M] | Agonist activity (EC50, M) [2] [M] | IC50 [3] [nM]
[NMeY][Aib]EGTFISDYSI[dIva]LDRIAQ[Aib]N[αMeF]VNWLLAQRPSSGAPPPSR (ends and bridges not checked) [Compound 99] | > 1e-06 | 2.9e-12 | 2.1
Me-Y[Aib]EGTFISDYSIALDRIAQQN[αMeF]VNWLLAQRPSSGAPPPSR (not fully specified (residue 1, C-terminus); ends and bridges not checked) [Compound 134] | > 1e-06 | 2.3e-12 | 1.2
Y[Aib]EGTFISDYSK([PEG(2)-Lauroyl])ALDR[Aib]HQQSFVNW[Iva]LAQRPSSGAPPPS (not fully specified (C-terminus); ends and bridges not checked) [Compound 224] | > 1e-06 | 4.2e-12 | 
Y[Aib]EGTFISDYSK([PEG3′-PEG3′-γGlu-C20 diacid])ALDR[Aib]HQ[Aib]NFVNW[Iva]LAQRPSSGAPPPS (not fully specified (C-terminus); ends and bridges not checked) [Compound 242] | > 1e-06 | 6.7e-11 | 
Y[Aib]EGTFISDYSIALDRK([PEG(2)-Pal])HQQDFVNWLLAQRPSSGAPPPS (not fully specified (C-terminus); ends and bridges not checked) [Compound 233] | > 1e-06 | 3.8e-12 | 
Y[Aib]EGTFISDYSIALDRK([PEG(2)-dodec])HQ[Aib]NFVNW[Iva]LAQRPSSGAPPPS (not fully specified (C-terminus); ends and bridges not checked) [Compound 239] | 5e-08 | 2.5e-12 | 
Y[Aib]EGTVVSLYSI[Aib]LDKQAQ[Aib]EFVKWLLAQKK(Pal) (ends and bridges not checked) [Compound 161] | > 1e-06 |  | 24
[NMeY][Aib]EGTFISDYSIALDR[Aib]AQ[Aib]NFVNW[Iva]LAQRPSSGAPPPSR (ends and bridges not checked) [Compound 84] |  | 1.2e-12 | 1.2
Y[Aib]EGTVVSLYSK([Gly-Gly-Gly-Gly-C20 diacid])[Aib]LDRQAQ[Aib]EFVK(Ac)WLLAQR (ends and bridges not checked) [Compound 260] | > 1e-06 | 2.6e-10 | 15
[NMeY][Aib]EGTFISDYSI[dIva]LDR[Aib]AQ[Aib]N[αMeF]VNWLLAQRPSSGAPPPSR (not fully specified (N-terminus, C-terminus); ends and bridges not checked) [Compound 106] | > 1e-06 | 1.7e-12 | 1.6
[NMeY][Aib]EGTFISDYSIALDRIAQ[Aib]SFVNW[Iva]LAQRPSSGAPPPSR (ends and bridges not checked) [Compound 124] | > 1e-06 | 1.7e-12 | 1.6
